Publication doi:10.1101/430827 (bioRxiv, 2018)

Experiments:
[1] = target: M2345/WT IRSp53 heterodimer (UniProt Q9UQB8); experiment: co-IP
[2] = target: WT/M2345 IRSp53 heterodimer (UniProt Q9UQB8); experiment: co-IP
2xFLAG-Eps8 = 2xFLAG-Eps8 (human, UniProt Q12929 1-822); experiment: other fluorescence titration
[3] = target: FLAG-Eps8/pIRSp53 complex (human | , UniProt Q12929 1-822; Q9UQB8-4 1-521, phosphorylated (pIRSp53, as m4)); experiment: pull-down
crystal structure = target: the molecule itself; experiment: crystal structure

Chain of FLAG-Eps8/pIRSp53 complex (Q12929 whole entry, one chain of several): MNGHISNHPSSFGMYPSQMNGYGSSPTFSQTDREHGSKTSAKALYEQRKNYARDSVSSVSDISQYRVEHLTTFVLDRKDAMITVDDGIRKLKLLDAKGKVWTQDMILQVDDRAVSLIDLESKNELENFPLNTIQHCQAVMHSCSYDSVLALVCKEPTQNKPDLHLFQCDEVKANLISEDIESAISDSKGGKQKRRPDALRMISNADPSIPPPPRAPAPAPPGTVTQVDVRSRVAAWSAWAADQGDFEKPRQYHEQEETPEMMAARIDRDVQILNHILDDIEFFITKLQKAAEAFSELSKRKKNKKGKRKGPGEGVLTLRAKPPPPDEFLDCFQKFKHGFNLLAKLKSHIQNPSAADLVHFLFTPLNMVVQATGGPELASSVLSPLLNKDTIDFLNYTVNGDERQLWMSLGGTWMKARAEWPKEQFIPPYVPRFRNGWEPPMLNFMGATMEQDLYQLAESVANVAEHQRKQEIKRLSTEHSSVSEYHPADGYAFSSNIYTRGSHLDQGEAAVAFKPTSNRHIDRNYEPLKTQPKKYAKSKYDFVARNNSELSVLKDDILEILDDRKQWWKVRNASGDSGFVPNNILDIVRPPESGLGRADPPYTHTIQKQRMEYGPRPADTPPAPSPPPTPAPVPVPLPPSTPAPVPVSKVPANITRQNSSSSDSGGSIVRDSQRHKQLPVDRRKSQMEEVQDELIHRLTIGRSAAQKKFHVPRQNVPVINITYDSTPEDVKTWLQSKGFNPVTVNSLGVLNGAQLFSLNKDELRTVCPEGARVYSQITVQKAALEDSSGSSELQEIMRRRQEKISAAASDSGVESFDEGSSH
Chain of 2xFLAG-Eps8 (Q12929 whole entry): as the sequence (Q12929 whole entry, one chain of several) above

Work on “endogenous 14-3-3 (all isoforms included) (from UniProt P27348 1-245) (natural protein)” yielded a percent of the amount that coimmunoprecipitates with WT/WT IRSp53 [1] of 50% and a percent of the amount that coimmunoprecipitates with WT/WT IRSp53 [2] of 50%.

B1: pIRSp53FS (natural protein, UniProt Q9UQB8-4 1-521, looked up)
chain: MSLSRSEEMHRLTENVYKTIMEQFNPSLRNFIAMGKNYEKALAGVTYAAKGYFDALVKMGELASESQGSKELGDVLFQMAEVHRQIQNQLEEMLKSFHNELLTQLEQKVELDSRYLSAALKKYQTEQRSKGDALDKCQAELKKLRKKSQGSKNPQKYSDKELQYIDAISNKQGELENYVSDGYKTALTEERRRFCFLVEKQCAVAKNSAAYHSKGKELLAQKLPLWQQACADPSKIPERAVQLMQQVASNGATLPSALSASKSNLVISDPIPGAKPLPVPPELAPFVGRMSAQESTPIMNGVTGPDGEDYSPWADRKAAQPKSLSPPQSQSKLSDSYSNTLPVRKSVTPKNSYATTENKTLPRSSSMAAGLERNGRMRVKAIFSHAAGDNSTLLSFKEGDLITLLVPEARDGWHYGESEKTKMRGWFPFSYTRVLDSDGSDRLHMSLQQGKSSSTGNLLDKDDLAIPPPDYGAASRAFPAQTASGFKQRPYSVAVPAFSQGLDDYGARSMSSGSGTLVCTV
modifications: natively phosphorylated in HEK293T cells; C230 and C519 labeled with the donor/acceptor pair fluorescein maleimide/rhodamine maleimide
For B1, the Kd (2xFLAG-Eps8) was 42 nM.

B2: 14-3-3θ (natural protein, human)
chain: MEKTELIQKAKLAEQAERYDDMATCMKAVTEQGAELSNEERNLLSVAYKNVVGGRRSAWRVISSIEQKTDTSDKKLQLIKDYREKVESELRSICTTVLELLDKYLIANATNPESKVFYLKMKGDYFRYLAEVACGDDRKQTIDNSQGAYQEAFDISKKEMQPTHPIRLGLALNFSVFYYEILNNPELACTLAKTAFDEAIAELDTLNEDSYKDSTLIMQLLRDNLTLWTSDSAGEECDAAEGAEN
B2: binds [3]; binds (crystal structure).
